Laboratory results reported in patent US20250368735A1 (AKESO BIOPHARMA, published 2025).
Blank lines part the entries; values can stand above or below the binder they belong to.

Columns and labels:
[1] = molecular target: T1, CD47 IgV TEV-His (human, UniProt Q08722 19-141); experiment: indirect ELISA screening with CD47 IgV TEV-His as antigen
T1 construct: range 19-141; also called human CD47 IgV TEV-His; not shown: his tag

[2] = molecular target: T2, CD47 ECD-His (human, UniProt Q08722 19-141, limits assumed); experiment: BLI (Fortebio Octet), antibody on AHC sensor, CD47 ECD-His 4.94-400 nM, 1:1 fit
T2 construct: extracellular domain; also called human CD47 ECD-His; not shown: His tag
Description: The affinity constant of the antibody for human CLDN18.2 and CD47 ECD-His was determined using a Fortebio Octer molecular interaction instrument. The sample dilution buffer was PBS (0.02% Tween-20, 0.1% BSA, pH 7.4). The method for detecting the affinity of the antibody for human CLDN18.2 is as follows. The antibody at 20 nM was immobilized on an AHC sensor for 60 s. The sensor was equilibrated in a buffer for 60 s, and the binding of the immobilized antibody on the sensor to CLDN18.2 His at concentrations of 6.25-100 nM (two-fold dilution) was determined for 180 s. The protein was dissociated in the buffer for 360 s. The method for detecting the affinity of the antibody to human CD47 ECD-His is as follows. The antibody at 30 nM was immobilized on an AHC sensor for 120 s. The sensor was equilibrated in a buffer for 60 s, and the binding of the immobilized antibody on the sensor to the protein CD47 ECD-His at concentrations of 4.94-400 nM (three-fold dilution) was determined for 50 s. The protein was dissociated in the buffer for 120 s. The shaking speed of the sample plate was 1000 rpm, the temperature was 30° C., and the frequency was 5.0 Hz. The data were analyzed by 1:1 model fitting to obtain affinity constants. The data acquisition software was Fortebio Data Acquisition 12.0, and the data analysis software was Fortebio Data Analysis HT 12.0.

[3] = molecular target: T1, CD47 IgV TEV-His; experiment: indirect ELISA, coated CD47-Igv-TEV-his 2 µg/mL
Description: After blocking, the ELISA plate was washed 3 times with PBST. The ELISA plate containing the test antibodies was incubated at 37° C. for 30 min and then washed 3 times with PBST. […] The data were analyzed and processed by SoftMax Pro 6.2.1.

[4] = molecular target: T3, CD47 on the cell membrane surface (CHO-K1-CLDN18.2-CD47 cells, 3T3-CD47 cells, human red blood cells, human T … (human, UniProt Q08722 19-323)); experiment: competitive flow cytometry on CHO-K1-CLDN18.2-CD47 cells; competitor hSIRPaV2-hFc-mFc at 3 nM
T3 construct: whole, on cells; blood cells came from healthy human volunteers; also called cell membrane surface antigen CD47
Description: 100 μL of 1% PBSA was then added to each well, and the mixture was centrifuged and washed.

[5] = molecular target: T3, CD47 on the cell membrane surface …; experiment: flow cytometry (FACS) on CHO-K1-CLDN18.2-CD47 cells, PE anti-human IgG Fc
Description: CHO-K1-CLDN18.2-CD47 cells (CHO-K1 cells overexpress CLDN18.2 and CD47 antigens, and are obtained from Cell Resource Center, Institute of Basic Medical Sciences, Chinese Academy of Medical Sciences) in the logarithmic growth phase were collected, and were transferred to a V-bottomed 96-well plate at 1×10⁵ cells/well. 100 μL of 1% PBSA (PBS+1% BSA) was added, and the mixture was centrifuged at 1000×g for 5 min, followed by removal of the supernatant. […] The mixture was mixed gently and well, and then incubated on ice for 40 min. 150 μL of 1% PBSA was added to each well, and the mixture was centrifuged at 1000×g for 5 min. The supernatant was discarded, and the plate was further washed three times at 200 μL/time. […] The diluted antibody was added to corresponding samples at 100 μL/well, and the cell pellet was resuspended and incubated on ice in the dark for 0.5 h. 150 μL of 1% PBSA was added to each well, and the mixture was centrifuged at 1000 g for 5 min, followed by removal of the supernatant. Then the plate was washed twice with 200 μL of 1% PBSA. 200 μL of 1% PBSA was added to each well to resuspend the cell pellet, and the mixture was transferred to a flow cytometry tube. FACS Calibur assay was performed, and the binding activity was analyzed.

[6] = molecular target: T4, human CLDN18.2 (ELISA coating antigen) (human, UniProt P56856-2 1-261, limits assumed); experiment: indirect ELISA, coated human CLDN18.2 2 µg/mL
T4 construct: also called antigen human CLDN18.2
Description: After blocking, the ELISA plate was washed 3 times with PBST. The ELISA plate containing the test antibodies was incubated at 37° C. for 30 min and then washed 3 times with PBST. […] The ELISA plate was put into a microplate reader immediately, and the OD value of each well in the ELISA plate was read at 450 nm. The data were analyzed and processed by SoftMax Pro 6.2.1.

[7] = molecular target: T5, CLDN18.2 on the cell membrane surface (CHO-K1-CLDN18.2 cells, CHO-K1-CLDN18.2-CD47 cells, CHO-K1-hClaudin18.2 … (human, UniProt P56856-2 1-261)); experiment: indirect ELISA screening with CHO-K1-hClaudin18.2 cells as antigen
T5 construct: whole, on cells; also called human Claudin18.2

binding result [1]: binds
B1: 6F7 (antibody, V domains shown)
VH: QVQLQQPGAELVRPGASVKLSCKASGYTFTSYWMNWVKQRPGQGLEWIGMIDPSDSETHNNQMFKDKATLTVDKSSNTAYMHLSSLTSEDSAVYHCARLYRWYFDVWGAGTTVTVSS
VL: NIVMTQSPKSMSMSLGERVTLSCKASEIVGTYVSWFQQKPHQSPKLLIYGASNRYTGVPDRFTGSGSATDFTLTISNVQAEDLADYHCGQSYNFPYTFGGGTKLEIK
notes: Mouse hybridoma antibody; also called anti-CD47 antibody 6F7; monoclonal antibody secreted by hybridoma cell line LT012

binding result [7]: binds
B4: 8C5.1 (antibody, V domains shown)
VH: EVQLVESGGGLVKPGGSLKLSCAASGFTFSNSAVSWVRQTPEKRLEWVATITSGVSYTYYLDSVRGRFTISRDNAKNTLYLQMSSLRSEDTAMYYCTRQFKGNALDYWGQGTSVTVSS
VL: DIVMTQSPSSLTVTAGEKVTMSCKSSQSLLNSGNQKNYLTWYQQKPGQPPKLLIYWASTRESGVPDRFTGSGSGTDFTLTINNFQAEDLAVYYCQNDYFYPLTFGAGTKLELK
notes: Mouse hybridoma antibody; also called anti-CLDN18.2 antibody 8C5.1; monoclonal antibody secreted by hybridoma cell line LT020

Further lines, the binder ahead of its results:

B2: 6F7H1L1(hG4) (antibody, V domains shown)
VH: QVQLVQSGAEVVKPGASVKLSCKASGYTFTSYWMNWVRQRPGQGLEWIGMIDPSDSETHNAQKFQGKATLTVDKSTSTAYMHLSSLRSEDTAVYYCARLYRWYFDVWGAGTTVTVSS
VL: NIVMTQSPATMSMSPGERVTLSCRASEIVGTYVSWFQQKPGQAPRLLIYGASNRYTGVPARFSGSGSGTDFTLTISSVQPEDLADYHCGQSYNFPYTFGGGTKLEIKR
Kd [2]: 27.3 nM
koff [2]: 0.0142 s⁻¹
kon [2]: 519000 M⁻¹ s⁻¹
EC50 [3]: 0.012 nM
EC50 [4]: 5 nM
EC50 [5]: 1.29 nM

B3: IMAB362 (antibody, V domains shown)
VH: QVQLQQPGAELVRPGASVKLSCKASGYTFTSYWINWVKQRPGQGLEWIGNIYPSDSYTNYNQKFKDKATLTVDKSSSTAYMQLSSPTSEDSAVYYCTRSWRGNSFDYWGQGTTLTVSS
VL: DIVMTQSPSSLTVTAGEKVTMSCKSSQSLLNSGNQKNYLTWYQQKPGQPPKLLIYWASTRESGVPDRFTGSGSGTDFTLTISSVQAEDLAVYYCQNDYSYPFTFGSGTKLEIKR
EC50 [6]: 0.014 nM
